The results in this text go back to US6410319.

The assay has as its target T1, CD20 (human) (UniProt P11836).
T1 sequence (looked up): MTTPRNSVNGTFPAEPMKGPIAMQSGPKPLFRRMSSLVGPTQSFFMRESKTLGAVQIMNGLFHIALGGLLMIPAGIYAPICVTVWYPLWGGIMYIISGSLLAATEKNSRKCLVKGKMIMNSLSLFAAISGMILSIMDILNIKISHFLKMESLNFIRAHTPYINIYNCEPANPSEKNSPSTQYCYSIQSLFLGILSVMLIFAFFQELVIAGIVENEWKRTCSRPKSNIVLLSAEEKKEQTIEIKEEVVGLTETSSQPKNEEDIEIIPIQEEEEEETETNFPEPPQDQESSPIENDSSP
Nature of the assay: cell-based or functional assay.

B1: anti-CD20 Leu-16 monoclonal antibody (antibody, from another filing, V domains shown)
VH: EVQLQQSGAELVKPGASVKMSCKASGYTFTSYNMHWVKQTPGQGLEWIGAIYPGNGDTSYNQKFKGKATLTADKSSSTAYMQLSSLTSEDSADYYCARSNYYGSSYWFFDVWGAGTTVTVSS
VL: DIVLTQSPAILSASPGEKVTMTCRASSSVNYMDWYQKKPGSSPKPWIYATSNLASGVPARFSGSGSGTSYSLTISRVEAEDAATYYCQQWSFNPPTFGGGTKLEIK
On to B1, for which the decrease of IL-2 concentration in supernatants of Jurkat transfectants co-cultured with LCL turned out to be 60%.
